These results are taken from article PMC10159178 (PLOS ONE, 2023).

In the assay the target is wild-type SARS-CoV-2 RBD-His protein (SARS-CoV-2, wild-type, UniProt P0DTC2). Put plainly: SPR. The settings on record: both partners purified.

B1: 1D1 human monoclonal antibody against the RBD of SARS-CoV-2 (antibody, V domains shown)
VH: EVLLVESGGGLIQPGGSLRLSCAASGFTVSSNYMIWVRQAPGKGLEWVSLIYSGGSTFYADSVKGRFIISRDSSKNTLYLQMNSLRAEDTAVYYCAREPYGDKAWGQGTLVTVSS
VL: DIQMTQSPSSLSASVGDRVTITCQASQDINKYLNWYQQKPGKAPKPLISDTSNLQPGVPSRFSGSGAGTDFTLTISSLQPEDIATYYCQQYDNLPITFGQGTRLEIK
For orientation: Kd means the constant that tells how readily two partners part at equilibrium. A high value points to lower affinity. As usually defined, the koff is the rate constant with which the complex falls apart. A low value points to slow dissociation. A word on the kon: it is the rate constant with which the complex forms. B1 yielded a Kd of 0.242 nM, a dissociation rate constant (koff) of 0.00015 s⁻¹ and an association rate constant (kon) of 620000 M⁻¹ s⁻¹.

B2: 3D2 human monoclonal antibody against the RBD of SARS-CoV-2 (antibody, V domains shown)
VH: EVQLVQSGAEVKKPGDSLKISCKGSGYSFANYWIGWVRQKPGKGLEWMGIIYPGDSDTRYSPSSLGQVSISVDKSISTAYLQWSSLKASDTAMYYCARHPIHGYGSGSLYNPDYWGQGTLVTVSS
VL: QSVLTQPPSVSAAPGQKVTISCSGSNSNIGINYVSWYQQLPETAPKLLIYENNQRPSGIPDRFSGSKSGTSATLGITGLQTGDEADYYCGTWDTSLGAYVFGTGTKVTVL
notes: also called 3D2 mAb
With B2, the Kd was 0.789 nM, the koff came out at 0.000268 s⁻¹, the on-rate constant (kon) was found to be 339000 M⁻¹ s⁻¹ and the t1/2 turned out to be 43.1 min.
